Measurements published in patent US20210292396A1.

Tests used:
Test in all cases: cell-based or functional assay
[1] = target: Env of HIV isolate 0013095-2.11 (clade C) (HIV)
[2] = target: Env of HIV isolate 0077.v1.c16 (clade C) (HIV)
[3] = target: Env of HIV isolate 0815.v3.c3 (clade ACD) (HIV)
[4] = target: Env of HIV isolate 231965.c01 (clade D) (HIV)
[5] = target: Env of HIV isolate 25711-2.4 (clade C) (HIV)
[6] = target: Env of HIV isolate 3301.v1.c24 (clade AC) (HIV)
[7] = target: Env of HIV isolate 6095.v1.c10 (clade ACD) (HIV)
[8] = target: Env of HIV isolate 6322.v4.c1 (clade C) (HIV)
[9] = target: Env of HIV isolate 6405.v4.c34 (clade D) (HIV)
[10] = target: Env of HIV isolate BJOX025000.01.1 (clade AE) (HIV)
[11] = target: Env of HIV isolate BR07.DG (clade B) (HIV)
[12] = target: Env of HIV isolate Bal.01 (clade B) (HIV)
[13] = target: Env of HIV isolate C2101.c1 (clade AE) (HIV)
[14] = target: Env of HIV isolate CAP256.206.C9 (clade C) (HIV)
[15] = target: Env of HIV isolate CH070.1 (clade BC) (HIV)
[16] = target: Env of HIV isolate CH117.4 (clade BC) (HIV)
[17] = target: Env of HIV isolate CH181.12 (clade BC) (HIV)
[18] = target: Env of HIV isolate CNE40 (clade BC) (HIV)
[19] = target: Env of HIV isolate CNE59 (clade AE) (HIV)
[20] = target: Env of HIV isolate CNE7 (clade BC) (HIV)
[21] = target: Env of HIV isolate CNE8 (clade AE) (HIV)
[22] = target: Env of HIV isolate HO86.8 (clade B) (HIV)
[23] = target: Env of HIV isolate KER2018.11 (clade A) (HIV)
[24] = target: Env of HIV isolate QH0692.42 (clade B) (HIV)
[25] = target: Env of HIV isolate QH209.14M.A2 (clade A) (HIV)
[26] = target: Env of HIV isolate SO18.18 (clade C) (HIV)
[27] = target: Env of HIV isolate ZM214.15 (clade C) (HIV)
[28] = target: HIV Env of isolate 0439.v5.c1 (HIV)
[29] = target: HIV Env of isolate 247-23 (HIV)
[30] = target: HIV Env of isolate 25710-2.43 (HIV)
[31] = target: HIV Env of isolate 25711-2.4 (HIV)
[32] = target: HIV Env of isolate 269-12 (HIV)
[33] = target: HIV Env of isolate 286.36 (HIV)
[34] = target: HIV Env of isolate 6644.v2.c33 (HIV)
[35] = target: HIV Env of isolate BJOX025000.01.1 (HIV)
[36] = target: HIV Env of isolate CH117.4 (HIV)
[37] = target: HIV Env of isolate CNE5 (HIV)
[38] = target: HIV Env of isolate CNE58 (HIV)
[39] = target: HIV Env of isolate CNE8 (HIV)
[40] = target: HIV Env of isolate DJ263.8 (HIV)
[41] = target: HIV Env of isolate DU123.06 (HIV)
[42] = target: HIV Env of isolate HO86.8 (HIV)
[43] = target: HIV Env of isolate HXB2.DG (HIV) (UniProt P04578)
[44] = target: HIV Env of isolate SC422.8 (HIV)
[45] = target: HIV Env of isolate SF162.LS (HIV)
[46] = target: HIV Env of isolate SS1196.01 (HIV)
[47] = target: HIV Env of isolate T251-18 (HIV)
[48] = target: HIV Env of isolate T278-50 (HIV)
[49] = target: HIV Env of isolate TV1.29 (HIV)
[50] = target: HIV Env of isolate TZBD.02 (HIV)
[51] = target: HIV Env of isolate UG037.8 (HIV)
[52] = target: HIV Env of isolate ZM135.10a (HIV)
[53] = target: HIV Env of isolate ZM249.1 (HIV)

In the case of PGT121 (antibody), the IC50, pseudovirus neutralization [1] is reported as greater than 50 µg/mL, the IC50, pseudovirus neutralization [2] is reported as greater than 50 µg/mL and the IC50, pseudovirus neutralization [3] is reported as 0.0323 µg/mL. It also gave an IC50, pseudovirus neutralization [4] greater than 50 µg/mL, an IC50, pseudovirus neutralization [5] of 0.0173 µg/mL and an IC50, pseudovirus neutralization [6] of 0.0217 µg/mL. For the same substance, the IC50, pseudovirus neutralization [7] was 1.98 µg/mL, the IC50, pseudovirus neutralization [8] was greater than 50 µg/mL and the IC50, pseudovirus neutralization [9] was 0.042 µg/mL. It also gave an IC50, pseudovirus neutralization [10] greater than 50 µg/mL, an IC50, pseudovirus neutralization [11] of 0.132 µg/mL and an IC50, pseudovirus neutralization [12] of 0.0113 µg/mL. For the same substance, the IC50, pseudovirus neutralization [13] was greater than 50 µg/mL, the IC50, pseudovirus neutralization [14] was 0.02 µg/mL and the IC50, pseudovirus neutralization [15] was 0.0137 µg/mL. It also gave an IC50, pseudovirus neutralization [16] greater than 50 µg/mL, an IC50, pseudovirus neutralization [17] of 0.0313 µg/mL and an IC50, pseudovirus neutralization [18] of 0.281 µg/mL. For the same substance, the IC50, pseudovirus neutralization [19] was greater than 50 µg/mL, the IC50, pseudovirus neutralization [20] was 0.0477 µg/mL and the IC50, pseudovirus neutralization [21] was greater than 50 µg/mL. The IC50, pseudovirus neutralization [22] was greater than 50 µg/mL, the IC50, pseudovirus neutralization [23] was greater than 50 µg/mL and the IC50, pseudovirus neutralization [24] was 0.972 µg/mL. For the same substance, the IC50, pseudovirus neutralization [25] was greater than 50 µg/mL, the IC50, pseudovirus neutralization [26] was 0.00533 µg/mL and the IC50, pseudovirus neutralization [27] was 0.392 µg/mL. For the same substance, the IC80 [28] was greater than 50 µg/mL, the IC80, pseudovirus neutralization [29] was greater than 50 µg/mL and the IC80, pseudovirus neutralization [30] was 0.066 µg/mL. For the same substance, the IC80, pseudovirus neutralization [31] was 0.0497 µg/mL, the IC80 [32] was 0.627 µg/mL and the IC80, pseudovirus neutralization [33] was 0.027 µg/mL. It also gave an IC80, pseudovirus neutralization [34] of 0.14 µg/mL, an IC80 [35] greater than 50 µg/mL and an IC80, pseudovirus neutralization [36] greater than 50 µg/mL. For the same substance, the IC80 [37] was greater than 50 µg/mL, the IC80, pseudovirus neutralization [38] was greater than 50 µg/mL and the IC80 [39] was greater than 50 µg/mL. For the same substance, the IC80 [40] was 0.202 µg/mL, the IC80, pseudovirus neutralization [41] was 0.135 µg/mL and the IC80 [42] was greater than 50 µg/mL. It also gave an IC80 [43] greater than 50 µg/mL, an IC80 [44] of 0.3 µg/mL and an IC80 [45] of 0.021 µg/mL. The IC80 [46] was 0.0307 µg/mL, the IC80 [47] was 23.2 µg/mL and the IC80 [48] was greater than 50 µg/mL. It also gave an IC80, pseudovirus neutralization [49] of 0.438 µg/mL, an IC80, pseudovirus neutralization [50] of 0.137 µg/mL and an IC80 [51] of 0.307 µg/mL. It also gave an IC80, pseudovirus neutralization [52] of 3.69 µg/mL and an IC80, pseudovirus neutralization [53] greater than 50 µg/mL.
